Test results as given in article PMC11960969, “Mdga2 deficiency leads to an aberrant activation of BDNF/TrkB signaling that underlies autism-relevant synaptic and behavioral changes in mice” (PLOS Biology, 2025).

B1: sp¦O35449¦PRRT1_MOUSE (protein, UniProt O35449 1-306, looked up)
Proline-rich transmembrane …: MSSEKSGLPDSVPHTSPPPYNAPQPPAEPPIPPPQTAPSSHHHHHHHYHQSGTATLPRLGAGGLASAAASAQRGPSSSATLPRPPHHAPPGPAAGAPPPGCATLPRMPPDPYLQETRFEGPLPPPPPAAAAPPPPAPAPTAQAPGFVVPTHAGAVGTLPLGGYVAPGYPLQLQPCTAYVPVYPVGTPYAGGTPGGPGVTSTLPPPPQGPGLALLEPRRPPHDYMPIAVLTTICCFWPTGIIAIFKAVQVRTALARGDLVSAEIASREARNFSFISLAVGIAAMVLCTILTVVIIIAAQHHENYWDP
B2: sp¦Q8K0L9¦ZBT20_MOUSE (protein, UniProt Q8K0L9 1-741, looked up)
Zinc finger and BTB …: MLERKKPKTAENQKASEENEITQPGGSSAKPALPCLNFEAVLSPAPALIHSTHSLTNSHAHTGSSDCDISCKGMTERIHSINLHNFSNSVLETLNEQRNRGHFCDVTVRIHGSMLRAHRCVLAAGSPFFQDKLLLGYSDIEIPSVVSVQSVQKLIDFMYSGVLRVSQSEALQILTAASILQIKTVIDECTRIVSQNVGDVFPGIQDSGQDTPRGTPESGTSGQSSDTESGYLQSHPQHSVDRIYSALYACSMQNGSGERSFYSGAVVSHHETALGLPRDHHMEDPSWITRIHERSQQMERYLSTTPETTHCRKQPRPVRIQTLVGNIHIKQEMEDDYDYYGQQRVQILERNESEECTEDTDQAEGTESEPKGESFDSGVSSSIGTEPDSVEQQFGAAAPRDGQAEPAQPEQAAEAPAESSAQPNQLEPGASSPERSNESEMDNTVITVSNSSDKGVLQQPSVNTSIGQPLPSTQLYLRQTETLTSNLRMPLTLTSNTQVIGTAGNTYLPALFTTQPAGSGPKPFLFSLPQPLTGQQTQFVTVSQPGLSTFTAQLPAPQPLASSAGHSTASGQGDKKPYECTLCNKTFTAKQNYVKHMFVHTGEKPHQCSICWRSFSLKDYLIKHMVTHTGVRAYQCSICNKRFTQKSSLNVHMRLHRGEKSYECYICKKKFSHKTLLERHVALHSASNGTPPAGTPPGARAGPPGVVACTEGTTYVCSVCPAKFDQIEQFNDHMRMHVSDG
B3: sp¦Q3UHB1¦NT5D3_MOUSE (protein, UniProt Q3UHB1 1-546, looked up)
5'-nucleotidase …: MATVAAAARGAGARAAAGLRSCGGAVARERPRSGCARRLCSAPAAPAAVDMKSYLWARYHEAKRSTDELVPSIMNNLLNPDAIFSNNEMSLSDIEIYGFDYDYTLVFYSKHLHTLIFNAARDLLINEHRYPVEIRKYEYDPSFAIRGLHYDVQRAVLMKIDAFHYIQMGTVYRGLSVVPDEEVIDMYEGSHVPLEQMSDFYGKSSHGNTMKQFMDIFSLPEMTLLSCVNEHFLKNNIDYEPVHLYKDVKDSIRDVHIKGIMYRAIEADIEKYICYADQTRAVLAKLAAHGKKMFLITNSPSSFVDKGMRYIVGKDWRDLFDVVIVQAEKPNFFNDKRRPFRKVNEKGVLLWDKIHKLQKGQIYKQGNLYEFLKLTGWRGSKVLYFGDHIYSDLADLTLKHGWRTGAIIPELRSELRIMNTEQYIQTMTWLQTLTGLLEQMQVHRDAESQLVLQEWKKERKEMREMTKSFFNAQFGSLFRTDQNPTYFLRRLSRFADIYMASLSCLLNYDVHHTFYPRRTPLQHELPAWSDSPSAFKAPLLQEAQAK
B4: sp¦P0C7L0¦WIPF3_MOUSE (protein, UniProt P0C7L0 1-485, looked up)
WAS/WASL-interacting protein …: MPVPPPPPPPPPPPPPPPPPLGAPPPPPLGAPPPPPPPGPPVSTDTPSLRKPDLKGRSALLADIQQGTRLRKVTQINDRSAPQIEGSKGTSKEGGAAGSNARGGNTPPALGDLFAGGFPVLRPAGQRDVSGGKSGQGPGSRAPSPRLPIKAISGPLPAPASPRLGNASETHSSARPVPPRPSVPAPPPPTPPPPPPPPLPPASPIKAQLVSPPAPPTKVNPSVVPPPLPCAPPLPPPPPTPPPLPPASALSDKAVRPQLAPLHLPPIPPPLPLLPPCGYPGLHSEPNSPAQEVREPPAPPPPPPPPPPPPLPTYASCSSRTAVAPPPLPGANNSGSETPPPLPPKSPSFQTQKALPTPPGAPGPQAILQKKRRGPGTSGGKLNPPPAPPARSPTTELSSKSQQPGGQLRNGGQHAIDDFESKFTFHSMEDFPPPDEYKPCQKIYPSKVPRSRTPGSWLQAEAAGQSSDDIKSRNSQLSLKALPVR
B5: sp¦Q6NWV3¦IF122_MOUSE (protein, UniProt Q6NWV3 1-1182, looked up)
Intraflagellar transport …: MRAVLTWRDKAEQCIYDLAFKPDGTQLILAAGNRLLVYDTSDGTLLQPLKGHKDTVYCVAYAKDGKRFASGSADKSIIIWTSKLEGILKYTHNDSIQCVSYNPVTHQLASCSSSDFGLWSPEQKSVSKHKSSSKITCCSWTNDGQYLALGMANGIISIRNKNGEEKVKIERPGGSLSPIWSICWNPSREEHNDILAVADWGQKLSFYQLSGKQIGKDRPLNFDPCCISYFTKGEYILVGGSDKQVSLFTKDGVRLGTVGEQNSWVWTCRVKPDSNYVVVGCQDGTISFYQLIFSTVHGLYKDRYAYRDSMTDVIVQHLITEQKVRIKCRELVKKIAIYKNRLAIQLPEKILIYELYSEDSTDMHYRVKEKIVKKFECNLLVVCADHIILCQEKRLQCLSFSGVKEREWQMESLIRYIKVIGGPAGREGLLVGLKNGQILKIFVDNLFAIVLLKQATAVRCLDMSASRNKLAVVDENDTCLVYDIHTKELLFQEPNANSVAWNTQCEDMLCFSGGGYLNIKASTFPVHQQKLQGFVVGYNGSKIFCLHVFSMSAVEVPQSAPMYQYLDRKMFKEAYQIACLGVTDADWRELAMEALEGLEFETARKAFTRVQDLRYLELISSIEERKKRGETNNDLFLADVFSYQGKFHEAAKLYKRSGHENLALDMYTDLCMFEYAKDFLGSGDPKETKMLITKQADWARNINEPKAAVEMYISAGEHAKAIEISGSHGWVDMLIDIARKLDKAEREPLLMCACYFKKLDSPGYAAETYLKIGDLKSLVQLYVDTKRWDEAFALGEKHPEFKDDVYVPYAQWLAENDRFEEAQKAFHKAGRQGEAVRVLEQLTHNAVVESRFNDAAYYYWMLSMQCLDMAQDPAQKDAMLDKFHHFQHLAELYHGYQTIHRYTEEPFSFDLPETLFNISKFLLHSLTKATPLGISKVNTLFTLAKQSKALGAYKLARHAYDKLRGLQIPARIQKSIELGTLTIRSKPFHDSEELVPLCYRCSTNNPLLNNLGNVCINCRQPFIFSASSYEVLHLVEFYLEEGITDEEAVALIDLEAPRHKREGKWRETSSNNSQTLKLDETMDSIGEDDPFTAKLSFEQGSSEFVPVVVNRSVLRSMSRRDVLIKRWPPPLQWQYFRSLLPDASITMCPSCFQMFHSEDYELLVLQHACCPYCRRRIDDTGP

Test system: hippocampal proteins
Assay: DIA quantification proteomics, hippocampus of Mdga2+/- vs WT mice
Set-up: species or system mouse
Settings: Mdga2+/- vs WT mouse hippocampus (HET-HIP-VS-WT-HIP); S3 Table, downregulated DEPs; SE, pvalue and adj_pvalue in own columns c3-c5
Method: The hippocampus of 1.5–2-month-old Mdga2^ +/− male mice and their WT littermate controls was collected and sent to the BGI company for DIA quantification proteomics and data analysis. Briefly, samples were lysed and sonicated. After centrifugation, the supernatant was taken for quantification. Equal amounts of proteins (100 μg) per sample were subjected to trypsin enzymatic hydrolysis. After dryness, 10 μg enzymatic peptides per sample were separated by high-pH fractionation into a total of 10 fractions using high-performance liquid chromatography (HPLC) and freeze-dried. Data-dependent acquisition (DDA) fractions and DIA samples were analyzed by nano-LC–MS/MS. DDA data was identified by Andromeda search engine within MaxQuant. Identified results were used by Spectronaut^TM for spectral library construction. For DIA data, Spectronaut^TM used the constructed spectral library information to complete deconvolution and extraction, and used the mProphet algorithm to complete analytical quality control for obtaining reliable quantitative results. The mass spectrometry proteomics data have been deposited to the ProteomeXchange Consortium via the PRIDE [62] partner repository with the dataset identifier PXD050810. DEPs between comparison groups were identified based on the quantitative results, using the fold change >1.1 and p-value <0.05 as the criteria. After retrieval from the UniProtKB database, identified DEPs were processed for GO analysis by using DAVID (https://david.ncifcrf.gov/home.jsp) and Metascape database (https://metascape.org/gp/index.html).

Row | Molecule | log2FC
1 | B1 | -1.273
2 | B2 | -1.342
3 | B3 | -1.2606
4 | B4 | -1.266
5 | B5 | -1.266

Same assay, conditions: regulation class of the protein, HET-HIP-VS-WT-HIP; S3 Table, downregulated DEPs

Row | Molecule | Class
6 | B1 | Down
7 | B2 | Down
8 | B3 | Down
9 | B4 | Down
10 | B5 | Down
